Common to all, as to format: in vivo, rat
Test [1] has as its system MCA occluded rats. Nature of the test: Infarct volume analysis by TTC staining after MCA occlusion and reperfusion. As to conditions: Long-Evans rats, 1 hr MCA occlusion, end of 4th week after FCI injury, topical GDNF 1 μg, mean±SEM, n=6. As for the experimental part: (§1) Animals: The example conforms to the Guide for the Care and Use of Laboratory Animals, published by the US National Institutes of Health (NIH publication NO. 85-23, revised 1996). Male Long-Evans rats (National Lab. Animal Breeding and Research Center) weighing 300-350 g were used in this study. These animals were housed in a room with controlled temperature (24±1° C.) and humidity (55±5%) under a 12:12 h light-dark cycle. They were allowed free access to food and water.
Surgical procedure: The technique was a modification of the method of Huang et al (Huang S S, Tsai S K, Chih C L, Chiang L Y, Hsieh H M, Teng C M, Tsai M C. Neuroprotective effect of hexasulfobutylated C60 on rats subjected to focal cerebral ischemia. Free Radic Biol Med. 2001;30:643-649). In brief, each male Long-Evans rat was anesthetized by inhalation of a nitrous oxide/oxygen/halothane (69%:30%:1%) mixture during surgical preparation. Body temperature was maintained during surgery at 37±0.5° C. with a heating pad servo-controlled by a rectal probe. […] Measurements were performed before, during and right after unilateral MCA occlusion.
Focal ischemic infarcts were produced in the right lateral cerebral cortex in the territory of the MCA. Both common carotid arteries were exposed by midline anterior cervical incision. […]

In test [2] the test system is MCA occluded rats. The test is described as follows: Accelerating rotarod test after FCI injury. As to conditions: topical GDNF 1 μg. Here is the method: as §1
(§2) Surgical procedure: The technique was a modification of the method of Huang et al (Huang S S, Tsai S K, Chih C L, Chiang L Y, Hsieh H M, Teng C M, Tsai M C. Neuroprotective effect of hexasulfobutylated C60 on rats subjected to focal cerebral ischemia. Free Radic Biol Med. 2001;30:643-649). […]
The accelerating rotarod was used to assess motor deficit following ischemic injury in rats (Hamm R J, Pike B R, O'Dell D M, Lyeth B G, Jenkins L W. The rotarod test: an evaluation of its effectiveness in assessing motor deficits following traumatic brain injury. J Neurotrauma. 1994; 11:187-196). The rats were placed on rungs of the accelerating rotarod and the time the animals remained on the rotarod was measured. […] The time in seconds at which each animal fell off the rungs was recorded. […]
(§3) Statistics. Data are expressed as mean±standard error of mean (S.E.M.). […]
(Falling from the rotarod earlier than controls is read as motor impairment.)

Test [3] has as its system MCA occluded rats. Nature of the test: Grasping power test after FCI injury. As to conditions: topical GDNF 1 μg. As for the experimental part:
as §1, §2
The grasping power test was a modification of the method of Bertelli et al (Bertelli J A, Mira J C. The grasping test: a simple behavioral method for objective quantitative assessment of peripheral nerve regeneration in the rat. J Neurosci Methods. 1995;59:151-155). […] Rats were allowed to grasp the bar while being lifted by the tail with increasing firmness until they loosened their grip and the grasping power was scored.
as §3

Setting [4] is: end of 1st week after FCI injury.
[5] abbreviates: end of 4th week after FCI injury.

B1: Glial cell line-derived neurotrophic factor (protein, UniProt P39905 78-211, looked up)
Glial cell line-derived …: SPDKQMAVLPRRERNRQAAAANPENSRGKGRRGQRGKNRGCVLTAIHLNVTDLGLGYETKEELIFRYCSGSCDAAETTYDKILKNLSRNRRLVSDKVGQACCRPIAFDDDLSFLDDNLVYHILRKHSAKRCGCI
notes: GDNF (1 μg) dissolved in HBSS solution, topically applied
On to B1, for which the infarct volume with MCA occluded rats [1] came to 108.0±12.1 mm^3. Also, the “mean latency to stay on the rotarod, of baseline” value in the test on MCA occluded rats [2] (setting [4]) was 50.3%; in the test on MCA occluded rats [2] (setting [5]), 67.3%. Besides, the “mean value of grasping power, of baseline” value in the test with MCA occluded rats [3] (setting [4]) is given as 71.7%; with MCA occluded rats [3] (setting [5]) it was 97.6%.
